Measured values reported in patent US20250074973A1 (ANNEXON, published 2025).

Target: T1, human C1q (complement factor C1q, chains A, B and C) (Homo sapiens, UniProt P02745 23-245; P02746 28-253; P02747 29-245)
T1 construct: Endogenous C1q in serum and CSF of the treated human subjects
Assay: in vivo target engagement (PK/PD) in serum and CSF of dosed HD patients

T1 sequence (P02745 23-245 limits assumed, chain 1 of 3): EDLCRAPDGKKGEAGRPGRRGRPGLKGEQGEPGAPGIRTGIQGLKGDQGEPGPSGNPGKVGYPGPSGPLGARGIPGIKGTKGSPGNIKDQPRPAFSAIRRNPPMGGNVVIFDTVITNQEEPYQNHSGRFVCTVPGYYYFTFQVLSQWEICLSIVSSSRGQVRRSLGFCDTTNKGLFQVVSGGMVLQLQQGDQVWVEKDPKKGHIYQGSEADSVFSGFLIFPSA
T1 sequence (P02746 28-253 limits assumed, chain 2 of 3): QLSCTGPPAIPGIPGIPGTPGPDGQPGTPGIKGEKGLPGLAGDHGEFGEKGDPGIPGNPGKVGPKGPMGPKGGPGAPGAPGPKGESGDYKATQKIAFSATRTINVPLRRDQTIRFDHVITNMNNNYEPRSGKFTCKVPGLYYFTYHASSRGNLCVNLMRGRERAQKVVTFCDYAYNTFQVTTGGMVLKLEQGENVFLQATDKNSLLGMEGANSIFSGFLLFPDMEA
T1 sequence (P02747 29-245 limits assumed, chain 3 of 3): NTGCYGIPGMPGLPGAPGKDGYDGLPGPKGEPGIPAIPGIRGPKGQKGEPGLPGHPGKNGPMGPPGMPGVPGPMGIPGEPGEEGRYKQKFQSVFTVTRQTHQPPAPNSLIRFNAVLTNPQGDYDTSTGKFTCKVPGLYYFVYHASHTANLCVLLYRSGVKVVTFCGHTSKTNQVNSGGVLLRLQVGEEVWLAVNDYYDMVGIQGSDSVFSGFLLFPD

binding result: binds
B1: full-length C1q antibody (heavy chain SEQ ID NO: 14; light chain SEQ ID NO: 40) (antibody, human IgG4 S228P, kappa)
heavy: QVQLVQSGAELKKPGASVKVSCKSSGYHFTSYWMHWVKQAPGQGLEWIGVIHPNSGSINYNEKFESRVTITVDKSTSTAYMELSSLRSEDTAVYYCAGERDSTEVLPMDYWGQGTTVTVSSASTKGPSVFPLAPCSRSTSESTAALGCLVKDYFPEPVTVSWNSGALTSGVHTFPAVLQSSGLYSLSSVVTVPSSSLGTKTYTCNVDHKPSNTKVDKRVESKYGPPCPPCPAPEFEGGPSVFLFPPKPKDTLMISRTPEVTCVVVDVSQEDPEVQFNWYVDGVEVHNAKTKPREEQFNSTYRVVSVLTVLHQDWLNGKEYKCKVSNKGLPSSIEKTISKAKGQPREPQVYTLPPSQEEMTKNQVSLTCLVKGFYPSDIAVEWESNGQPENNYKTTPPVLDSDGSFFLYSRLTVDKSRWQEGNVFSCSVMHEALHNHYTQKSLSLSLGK
light: DVQITQSPSSLSASLGERATINCRASKSINKYLAWYQQKPGKAPKLLIYSGSTLQSGIPARFSGSGSGTDFTLTISSLEPEDFAMYYCQQHNEYPLTFGQGTKLEIKRTVAAPSVFIFPPSDEQLKSGTASVVCLLNNFYPREAKVQWKVDNALQSGNSQESVTEQDSKDSTYSLSSTLTLSKADYEKHKVYACEVTHQGLSSPVTKSFNRGEC
notes: also called full-length anti-C1q antibody; anti-C1q antibody
